Square brackets hold non-standard residues; d marks the D form. Ends that are not written are not given here.
B1: synthetic peptide of ICP27 103-155, unmodified (peptide)
peptide: SVWSRLGARRPSCSPEQHGGKVARLQPPPTKAQPARGGRRGRRRGRGRGGPGA
notes: also called unmodified ICP27^103–155; nonmethylated ICP27^103–155 peptide; source: synthetic peptide (Peptide Protein Research)
B2: synthetic peptide of ICP27 103-155, dimethylated on R138, R148 and R150 (peptide)
peptide: SVWSRLGARRPSCSPEQHGGKVARLQPPPTKAQPA[ADMA]GGRRGRRRG[ADMA]G[ADMA]GGPGA
notes: HSV-1 ICP27, residues 103 to 155; also called methylated ICP27^103–155; methylated ICP27^103–155 peptide; source: synthetic peptide (Peptide Protein Research)

What was measured:
[1] = target: T1, GB1-SRPK1 (full-length SRPK1 with N-terminal GB1 solubility tag) (Homo sapiens, UniProt Q96SB4); test: Isothermal titration calorimetry (ITC) of ICP27 peptides with GB1-SRPK1; type: binding; conditions: 25°C, 10 μM GB1-SRPK1 in cell, 120 μM peptide in syringe, 20 mM HEPES, 150 mM NaCl, 1 mM TCEP pH 7.4, single-site model, mean of 3 runs (± SD)
T1 construct: His tag; made in house; host or cells: E. coli BL21-CodonPlus (DE3)-RP
Text: The RGG box in full-length ICP27 (Fig. 1A) was previously identified by mutagenesis experiments as the segment necessary for interaction with SRPK1 ([27]), with the binding modulated by arginine methylation ([51]). […] To further confirm and map the RGG box interaction with SRPK1, we expressed and purified ^15N-labeled ICP27^103–155 and using the established backbone assignment ([55]) carried out nuclear magnetic resonance (NMR) signal perturbation mapping by comparison of ^1H-^15N correlation spectra in the presence and absence of unlabeled GB1-SRPK1 (Fig. 1E). […] These solution data together confirmed that SRPK1 binds with high affinity to a relatively short region of ICP27 containing the RGG box, with possible further contributions from nearby residues 112 to 121, whereas other residues retain significant flexibility when the peptide is bound. […]
GB1-SRPK1 and ICP27 peptides were placed into Slide-a-Lyzer G2 cassettes (Thermo Fisher) and dialyzed within identical buffer consisting of 20 mM HEPES, 150 mM NaCl, and 1 mM TCEP [Tris(2-carboxyethyl)phosphine hydrochloride] […] Protein concentrations were measured by absorbance at 280 nm using extinction coefficients ([67]) of 86,580 M^−1 cm^−1 and 5,500 M^−1 cm^−1 for GB1-SRPK1 and ICP27^103–155, respectively. […]

SRPK1 (Homo sapiens) = SRPK1 (Homo sapiens) (UniProt Q96SB4); conditions: cited from earlier work
[2] = target: T2, full-length SRPK1 tagged with an N-terminal GB1 solubility tag (human, UniProt Q96SB4 1-655); test: ITC; 10 μM GB1-SRPK1 in the sample cell, 120 μM ICP27 peptide in the syringe; 25°C; 20 mM HEPES, 150 mM NaCl, 1 mM TCEP, pH 7.4; single-site binding model; conditions: both partners purified
T2 construct: serine-arginine protein kinase 1 (SRPK1), human, full length; probably also carries a His tag used for purification; also called GB1-SRPK1; serine-arginine protein kinase 1; source: E. coli, purified (GST or His tag purification, size exclusion chromatography); not shown: GB1, N-terminal, kept
T2 sequence (Q96SB4 whole entry): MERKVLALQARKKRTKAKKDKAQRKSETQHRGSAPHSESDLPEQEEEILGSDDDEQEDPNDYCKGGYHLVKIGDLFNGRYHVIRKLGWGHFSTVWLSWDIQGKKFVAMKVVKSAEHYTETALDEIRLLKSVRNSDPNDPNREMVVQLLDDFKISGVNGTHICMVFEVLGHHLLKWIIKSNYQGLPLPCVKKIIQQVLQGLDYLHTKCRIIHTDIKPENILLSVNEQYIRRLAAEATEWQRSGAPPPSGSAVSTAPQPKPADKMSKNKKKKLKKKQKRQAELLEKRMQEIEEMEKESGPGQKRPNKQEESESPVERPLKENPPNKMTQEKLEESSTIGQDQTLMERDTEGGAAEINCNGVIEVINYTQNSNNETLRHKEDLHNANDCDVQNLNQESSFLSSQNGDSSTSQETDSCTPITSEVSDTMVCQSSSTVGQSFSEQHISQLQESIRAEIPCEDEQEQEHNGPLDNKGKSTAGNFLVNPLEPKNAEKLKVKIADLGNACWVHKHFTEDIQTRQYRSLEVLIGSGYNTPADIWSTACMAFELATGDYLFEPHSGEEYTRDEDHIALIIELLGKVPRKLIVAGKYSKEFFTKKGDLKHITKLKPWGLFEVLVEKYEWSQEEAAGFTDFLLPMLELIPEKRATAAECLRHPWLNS

T1 sequence (Q96SB4 whole entry): as above
SRPK1 (Homo sapiens), sequence (Q96SB4 whole entry): as above

Molecule | Kd [1] [nM] | Kd [2] [nM] | further results
CC(C)C[C@H](NC(=O)[C@H](CCCNC(=N)N)NC(=O)[C@H](CO)NC(=O)[C@H](Cc1c[nH]c2ccccc12)NC(=O)[C@@H](NC(=O)[C@@H](N)CO)C(C)C)C(=O)NCC(=O)N[C@@H](C)C(=O)N[C@@H](CCCNC(=N)N)C(=O)N[C@@H](CCCNC(=N)N)C(=O)N1CCC[C@H]1C(=O)N[C@@H](CO)C(=O)N[C@@H](CS)C(=O)N[C@@H](CO)C(=O)N1CCC[C@H]1C(=O)N[C@@H](CCC(=O)O)C(=O)N[C@@H](CCCNC(=N)N)C(=O)N[C@@H](Cc1c[nH]cn1)C(=O)NCC(=O)NCC(=O)N[C@@H](CCCCN)C(=O)N[C@H](C(=O)N[C@@H](C)C(=O)N[C@@H](CCCNC(=N)N)C(=O)N[C@@H](CC(C)C)C(=O)N[C@@H](CCC(N)=O)C(=O)N1CCC[C@H]1C(=O)N1CCC[C@H]1C(=O)N1CCC[C@H]1C(=O)N[C@H](C(=O)N[C@@H](CCCCN)C(=O)N[C@@H](C)C(=O)N[C@@H](CCC(N)=O)C(=O)N1CCC[C@H]1C(=O)N[C@@H](C)C(=O)N[C@@H](CCCNC(=N)N)C(=O)NCC(=O)NCC(=O)N[C@@H](CCCNC(=N)N)C(=O)N[C@@H](CCCNC(=N)N)C(=O)NCC(=O)N[C@@H](CCCNC(=N)N)C(=O)N[C@@H](CCCNC(=N)N)C(=O)N[C@@H](CCCNC(=N)N)C(=O)NCC(=O)N[C@@H](CCCNC(=N)N)C(=O)NCC(=O)N[C@@H](CCCNC(=N)N)C(=O)NCC(=O)NCC(=O)N1CCC[C@H]1C(=O)NCC(=O)N[C@@H](C)C(=O)O)[C@@H](C)O)C(C)C [ICP27^103–155] | 93.9 | – | –
SRSF1 (from UniProt Q07955) | – | – | Kd (SRPK1 (Homo sapiens)): 50 nM
CC(C)C[C@H](NC(=O)[C@H](CCCNC(=N)N)NC(=O)[C@H](CO)NC(=O)[C@H](Cc1c[nH]c2ccccc12)NC(=O)[C@@H](NC(=O)[C@@H](N)CO)C(C)C)C(=O)NCC(=O)N[C@@H](C)C(=O)N[C@@H](CCCNC(=N)N)C(=O)N[C@@H](CCCNC(=N)N)C(=O)N1CCC[C@H]1C(=O)N[C@@H](CO)C(=O)N[C@@H](CS)C(=O)N[C@@H](CO)C(=O)N1CCC[C@H]1C(=O)N[C@@H](CCC(=O)O)C(=O)N[C@@H](CCCNC(=N)N)C(=O)N[C@@H](Cc1c[nH]cn1)C(=O)NCC(=O)NCC(=O)N[C@@H](CCCCN)C(=O)N[C@H](C(=O)N[C@@H](C)C(=O)N[C@@H](CCCNC(=N)N)C(=O)N[C@@H](CC(C)C)C(=O)N[C@@H](CCC(N)=O)C(=O)N1CCC[C@H]1C(=O)N1CCC[C@H]1C(=O)N1CCC[C@H]1C(=O)N[C@H](C(=O)N[C@@H](CCCCN)C(=O)N[C@@H](C)C(=O)N[C@@H](CCC(N)=O)C(=O)N1CCC[C@H]1C(=O)N[C@@H](C)C(=O)N[C@@H](CCCNC(=N)N(C)C)C(=O)NCC(=O)NCC(=O)N[C@@H](CCCNC(=N)N)C(=O)N[C@@H](CCCNC(=N)N)C(=O)NCC(=O)N[C@@H](CCCNC(=N)N)C(=O)N[C@@H](CCCNC(=N)N)C(=O)N[C@@H](CCCNC(=N)N)C(=O)NCC(=O)N[C@@H](CCCNC(=N)N(C)C)C(=O)NCC(=O)N[C@@H](CCCNC(=N)N(C)C)C(=O)NCC(=O)NCC(=O)N1CCC[C@H]1C(=O)NCC(=O)N[C@@H](C)C(=O)O)[C@@H](C)O)C(C)C [methylated ICP27^103–155] | 261 | – | –
B1 | – | 94 ± 23 | –
B2 | – | 262 ± 21 | –
